The results in this text go back to patent US20250051454A1 (DUKE UNIVERSITY, published 2025).

The target in experiment [1] is T1, HLA-E-RL9SIV single chain trimer on transfected 293T cells (human, UniProt P61769 21-119; P13747 22-358).
T1 construct: also called control HLA-E-peptide complex
Description: flow cytometry on SCT-transfected 293T cells. (In general: In flow cytometry, cells or beads pass a laser one at a time.)

In experiment [2] the target is HLA-E on K562-E cells loaded with microbiome-derived peptide […] (Escherichia coli MS 175-1) (human, UniProt P13747 22-358; P61769 21-119). Nature of the experiment: flow cytometry on peptide-loaded K562-E cells, antibody 10 µg/ml.
Experiment [3] addresses HLA-E on K562-E cells loaded with microbiome-derived peptide […] (Stenotrophomonas sp.) (human, UniProt P13747 22-358; P61769 21-119). The experiment is described as above.
Experiment [4] deals with HLA-E on K562-E cells loaded with microbiome-derived peptide […] (Pseudomonas formosensis) (human, UniProt P13747 22-358; P61769 21-119). The description is as above.
For experiment [5], the target named is T2, soluble HLA-E-VL9 complex (HLA-E*01:03 heavy chain, beta2-microglobulin, VL9 peptide …) (human).
T2 construct: also called VL9 peptide-loaded HLA-E
Nature of the experiment: SPR, antibody on CM5 chip, soluble HLA-E-VL9 flowed over, 1:1 model; IgM 3H4. On the technique in general: Surface plasmon resonance follows binding to a sensor surface in real time, without labels.

Experiment [6] deals with T3, soluble HLA-E-RL9HIV complex (Homo sapiens).
T3 construct: C-trap-stabilized in the ELISA, biotinylated in the SPR; control antigen; also called C-trap-stabilized HLA-E-RL9HIV
Description: sandwich ELISA: plate coated with the antibody in serial dilution, C-trap-stabilized HLA-E-RL9HIV added, detection with HRP anti-human β2M [panel C]. Background: ELISA stands for enzyme-linked immunosorbent assay.

The target in experiment [7] is T4, soluble HLA-E-RL9SIV complex (Homo sapiens).
T4 construct: C-trap-stabilized in the ELISA, biotinylated in the SPR; control antigen; also called C-trap-stabilized HLA-E-RL9SIV
Description: sandwich ELISA: plate coated with the antibody in serial dilution, C-trap-stabilized HLA-E-RL9SIV added, detection with HRP anti-human β2M [panel C].

B1: 3H4 (mouse IgM monoclonal antibody) (antibody, V domains shown)
VH: EVQLQESGPELVKPGASVKIPCKASGYTFTDYNMDWVKQSHGKSLEWIGDINPNNGGTIYNQKFKGKATLTVDKSSSTAYMELRSLTSEDTAVYYCARPDYYGSSYGWYFDVWGTGTTVTVSS
VL: DIVITQSPSSMYASLGERVTITCKASQDINSYLSWFQQKPGKSPKTLIYRANRLVDGVPSRFSGSGSGQDYSLTISSLEYEDMGIYYCLQYDEFPLTFGAGTKLELK
notes: also called mAb 3H4; IgM 3H4
As usually defined, the Kd is the free concentration of one partner at which half of the binding sites on the other are occupied at equilibrium, for simple one-to-one binding. Consider B1, for which the binding result in experiment [1] is “no binding”; in experiment [2], “binds”; in experiment [3] it was “binds”; in experiment [4], “binds”; in experiment [6], “no binding”; in experiment [7] it was “no binding”. In addition, the Kd in experiment [5] came to 8.1 µM.
